Results from patent publication US20250346668A1.

How the values were obtained:
[1] = target: Human CD3e/g protein (human) (UniProt P07766); experiment: ELISA, coated hCD3e/g
[2] = target: Cynomolgus monkey CD3e/g protein (cynomolgus monkey); experiment: ELISA, coated cyno CD3e/g
[3] = target: human CD3e/d protein (Sinobiological, CAT: CT038-H2508H-B) (human) (UniProt P07766); experiment: ELISA, coated hCD3e/d

| Substance | EC50 [1] | OD450 nm at 0.000853 nM [1] | OD450 nm at 0.0043 nM [1] | OD450 nm at 0.02 nM [1] | OD450 nm at 0.11 nM [1] | OD450 nm at 0.53 nM [1] | OD450 nm at 2.67 nM [1] | OD450 nm at 13.3 nM [1] | OD450 nm at 66.7 nM [1] | OD450 nm at 0.000853 nM [2] | OD450 nm at 0.0043 nM [2] | OD450 nm at 0.02 nM [2] | OD450 nm at 0.11 nM [2] | OD450 nm at 0.53 nM [2] | OD450 nm at 2.67 nM [2] | OD450 nm at 13.3 nM [2] | OD450 nm at 66.7 nM [2] | further results |
| --- | --- | --- | --- | --- | --- | --- | --- | --- | --- | --- | --- | --- | --- | --- | --- | --- | --- | --- |
| HIT3a (antibody) | 4.2 nM | 0.07 OD450 nm | 0.07 OD450 nm | 0.08 OD450 nm | 0.12 OD450 nm | 0.31 OD450 nm | 0.59 OD450 nm | 0.94 OD450 nm | 1.22 OD450 nm | 0.04 OD450 nm | 0.04 OD450 nm | 0.04 OD450 nm | 0.04 OD450 nm | 0.04 OD450 nm | 0.04 OD450 nm | 0.04 OD450 nm | 0.04 OD450 nm |  |
| OKT3 (antibody) | 2.95 nM | 0.07 OD450 nm | 0.08 OD450 nm | 0.09 OD450 nm | 0.17 OD450 nm | 0.47 OD450 nm | 0.8 OD450 nm | 1.21 OD450 nm | 1.53 OD450 nm | 0.04 OD450 nm | 0.04 OD450 nm | 0.04 OD450 nm | 0.04 OD450 nm | 0.04 OD450 nm | 0.03 OD450 nm | 0.25 OD450 nm | 0.26 OD450 nm |  |
| SP34 (antibody) | 0.64 nM | 0.18 OD450 nm | 0.1 OD450 nm | 0.15 OD450 nm | 0.38 OD450 nm | 1.45 OD450 nm | 3.1 OD450 nm | 3.29 OD450 nm | 3.23 OD450 nm | 0.12 OD450 nm | 0.2 OD450 nm | 0.19 OD450 nm | 0.5 OD450 nm | 1.83 OD450 nm | 3.41 OD450 nm | 3.57 OD450 nm | 3.55 OD450 nm | EC50 [3]: 1.51 nM; Emax (OD) [3]: 2.01 OD; OD450 nm at 0.00128 nM [3]: 0.05 OD450 nm; OD450 nm at 0.0064 nM [3]: 0.06 OD450 nm; OD450 nm at 0.032 nM [3]: 0.09 OD450 nm; OD450 nm at 0.16 nM [3]: 0.23 OD450 nm; OD450 nm at 0.8 nM [3]: 0.7 OD450 nm; OD450 nm at 4 nM [3]: 1.49 OD450 nm; OD450 nm at 20 nM [3]: 2.01 OD450 nm; OD450 nm at 100 nM [3]: 1.87 OD450 nm; EC50 [2]: 0.55 nM |
| mouse IgG (antibody) |  | 0.177 OD450 nm | 0.101 OD450 nm | 0.08 OD450 nm | 0.09 OD450 nm | 0.14 OD450 nm | 0.07 OD450 nm | 0.1 OD450 nm | 0.15 OD450 nm | 0.0698 OD450 nm | 0.101 OD450 nm | 0.07 OD450 nm | 0.07 OD450 nm | 0.06 OD450 nm | 0.07 OD450 nm | 0.07 OD450 nm | 0.08 OD450 nm |  |
